B1: Protein S100-G, residues 1 to 79; numbered along this chain, P02633 (parent)
chain: MSAKKSPEELKGIFEKYAAKEGDPNQLSKEELKLLLQTEFPSLLKGPSTLDELFEELDKNGDGEVSFEEFQVLVKKISQ

Variants of: B1
Assay: abundance fitness (aPCA) (normalised: wild type 0, dead -1); higher = more abundant; growth selection in yeast, the domain comes from the species named
Settings: Bos taurus

Abundance fitness, by site and new letter:
Y17: V -0.345, C -0.295, Q -0.379, A -0.129, G -0.521, R -0.429, M -0.168, W -0.017, E -0.425, D -1.1, S -0.45, P -1.25, L -0.332, N -0.433, T -0.444, K -0.519, F -0.008, H -0.067
A19: G 0.058, C -0.009, V -0.062, M -0.015, H -0.013, N -0.017, D -0.034, W -0.111, F -0.057, Q 0.028, S 0.007, R -0.073, K 0.048, P -0.132, I -0.018, L 0.02, T 0.143
G12: H 0.064, P -0.048, N 0.001, E -0.165, L -0.009, W -0.082, M -0.002, Q -0.059, F -0.01, I 0.088, K 0.029, Y -0.045, R 0.046, V 0.031, D 0.067, T 0.068
E15: D -0.047, T 0.065, I 0.078, S -0.009, A -0.039, P -0.722, C -0.152, H 0.018, N -0.042, G -0.062, K -0.031, F 0.016, V -0.044, Y 0.077, W -0.048, Q 0.024, M 0.058
L10: R -0.488, Q -0.104, W -0.076, T -0.174, S -0.221, V -0.081, Y -0.038
K16: Y -0.102, G -0.213, W -0.176, A -0.058, N -0.07, Q -0.122, D -0.18, V -0.179, F -0.087, S -0.042, C -0.12, E -0.105, L -0.031, P -0.34, R -0.082, I -0.184, H -0.101, T -0.087, M -0.145
F14: S -1.22, H -0.971, T -1.33, C -1, M -0.589, K -1.18, Y 0.028, I -0.504, V -0.729, R -1.37, N -1.2, A -0.98, Q -1.29, D -1.23, L -0.73, E -1.32, P -1.33, W -0.088, G -1.53
I13: F -0.201, R -0.409, M 0.053, E -0.386, W -0.231, S -0.26, K -0.173, D -0.436, H -0.287, T -0.17, L -0.03, N -0.631, Q -0.219, P -0.424, G -0.959, V -0.123, C -0.093
K11: L -0.096, A -0.157, Y -0.124, R -0.185, I -0.002, F 0.023, T -0.197, G -0.176, W -0.294, P -0.373, M -0.151, H -0.14, E -0.063, Q -0.04, D -0.369, C -0.202
A18: S -0.055, I -0.248, H -0.195, M -0.161, E -0.904, D -0.846, P -0.968, T -0.15, N -0.362, Q -0.248, W -0.516, G -0.077, F -0.367, V -0.115, L -0.242, K -0.224, R -0.161, Y -0.424
K20: C -0.263, D -0.05, A -0.119

Source: the Human Domainome abundance scans (Beltran et al. 2025)
